# Measurements reported in patent US20140087995A1 (published 2014).
# Numbered stars: 1 amine (or outer) side, 2 acyl side, 3 side chain; on linkers, the order of the positions; unused ones are H or OH. Bridge positions count the residues as written; N and C are the ends. Side chains are listed from the residue outwards. Ends that are not written are not given here. * marks the point of attachment. C20 diacid = O=C(O)CCCCCCCCCCCCCCCCCCC(=O)*; γGlu = O=C(O)[C@H](CCC(=O)[*:2])N[*:1]
# T1: human amylin receptor (Amylin 3(a) receptor: human calcitonin receptor co-expressed with RAMP-3) (human, UniProt P30988 25-474; O60896 24-148, limits assumed)
# T1 construct: whole, on cells; Used as cell membranes prepared from the Amylin 3(a)/CRE-luc BHK cells (Assay V); the complex is called the human amylin receptor; also called hAmylin-R; hAmylinR
# T1 sequence (looked up) 1: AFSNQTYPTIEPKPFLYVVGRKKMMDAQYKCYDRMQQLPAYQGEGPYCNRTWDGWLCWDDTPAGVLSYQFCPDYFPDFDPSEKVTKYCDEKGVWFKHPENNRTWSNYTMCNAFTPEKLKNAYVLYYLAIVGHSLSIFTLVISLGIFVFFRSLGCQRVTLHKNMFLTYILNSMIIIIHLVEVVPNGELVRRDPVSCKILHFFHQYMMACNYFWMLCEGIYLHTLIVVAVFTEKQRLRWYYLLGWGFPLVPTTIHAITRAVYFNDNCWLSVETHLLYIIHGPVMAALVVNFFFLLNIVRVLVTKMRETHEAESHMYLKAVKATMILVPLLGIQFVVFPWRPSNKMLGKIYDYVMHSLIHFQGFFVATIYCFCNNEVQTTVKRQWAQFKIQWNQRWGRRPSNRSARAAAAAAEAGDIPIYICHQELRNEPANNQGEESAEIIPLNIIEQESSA
# T1 sequence (looked up) 2: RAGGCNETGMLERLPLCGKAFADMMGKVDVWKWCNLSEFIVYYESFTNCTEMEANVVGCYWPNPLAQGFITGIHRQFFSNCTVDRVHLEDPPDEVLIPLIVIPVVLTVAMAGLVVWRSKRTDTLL
# Biological target: T1, human amylin receptor (Amylin 3(a) …)
# Test: SPA competition binding, displacement of 125I-rat amylin from membranes of BHK cells with human calcitonin receptor + RAMP-3 (Assay V)
# How it was run: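 One-site competition analysis of SPA counts yielded IC₅₀ as a measure of affinity. Membranes were at 35 ng/μL final; incubation was 120 min at 25° C, pH 7.4.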
row,Binder,IC50
1,"K([γGlu-C20 diacid])CNTATCATQRLAEFLRHSSPNFGAIPSSTNVGPETY-NH2 (disulfide 2-7; N-terminus assumed; SMILES CC[C@H](C)[C@H](NC(=O)[C@H](C)NC(=O)CNC(=O)[C@H](Cc1ccccc1)NC(=O)[C@H](CC(N)=O)NC(=O)[C@@H]1CCCN1C(=O)[C@H](CO)NC(=O)[C@H](CO)NC(=O)[C@H](Cc1c[nH]cn1)NC(=O)[C@H](CCCNC(=N)N)NC(=O)[C@H](CC(C)C)NC(=O)[C@H](Cc1ccccc1)NC(=O)[C@H](CCC(=O)O)NC(=O)[C@H](C)NC(=O)[C@H](CC(C)C)NC(=O)[C@H](CCCNC(=N)N)NC(=O)[C@H](CCC(N)=O)NC(=O)[C@@H](NC(=O)[C@H](C)NC(=O)[C@@H]1CSSC[C@H](NC(=O)[C@@H](N)CCCCNC(=O)CC[C@H](NC(=O)CCCCCCCCCCCCCCCCCCC(=O)O)C(=O)O)C(=O)N[C@@H](CC(N)=O)C(=O)N[C@@H]([C@@H](C)O)C(=O)N[C@@H](C)C(=O)N[C@@H]([C@@H](C)O)C(=O)N1)[C@@H](C)O)C(=O)N1CCC[C@H]1C(=O)N[C@@H](CO)C(=O)N[C@@H](CO)C(=O)N[C@H](C(=O)N[C@@H](CC(N)=O)C(=O)N[C@H](C(=O)NCC(=O)N1CCC[C@H]1C(=O)N[C@@H](CCC(=O)O)C(=O)N[C@H](C(=O)N[C@@H](Cc1ccc(O)cc1)C(N)=O)[C@@H](C)O)C(C)C)[C@@H](C)O, modifications are with respect to human amylin)",0.14 nM
2,"K([γGlu-γGlu-C20 diacid])CNTATCATQRLAEFLRHSSPNFGAIPSSTNVGPRTY-NH2 (disulfide 2-7; N-terminus assumed; SMILES CC[C@H](C)[C@H](NC(=O)[C@H](C)NC(=O)CNC(=O)[C@H](Cc1ccccc1)NC(=O)[C@H](CC(N)=O)NC(=O)[C@@H]1CCCN1C(=O)[C@H](CO)NC(=O)[C@H](CO)NC(=O)[C@H](Cc1c[nH]cn1)NC(=O)[C@H](CCCNC(=N)N)NC(=O)[C@H](CC(C)C)NC(=O)[C@H](Cc1ccccc1)NC(=O)[C@H](CCC(=O)O)NC(=O)[C@H](C)NC(=O)[C@H](CC(C)C)NC(=O)[C@H](CCCNC(=N)N)NC(=O)[C@H](CCC(N)=O)NC(=O)[C@@H](NC(=O)[C@H](C)NC(=O)[C@@H]1CSSC[C@H](NC(=O)[C@@H](N)CCCCNC(=O)CC[C@H](NC(=O)CC[C@H](NC(=O)CCCCCCCCCCCCCCCCCCC(=O)O)C(=O)O)C(=O)O)C(=O)N[C@@H](CC(N)=O)C(=O)N[C@@H]([C@@H](C)O)C(=O)N[C@@H](C)C(=O)N[C@@H]([C@@H](C)O)C(=O)N1)[C@@H](C)O)C(=O)N1CCC[C@H]1C(=O)N[C@@H](CO)C(=O)N[C@@H](CO)C(=O)N[C@H](C(=O)N[C@@H](CC(N)=O)C(=O)N[C@H](C(=O)NCC(=O)N1CCC[C@H]1C(=O)N[C@@H](CCCNC(=N)N)C(=O)N[C@H](C(=O)N[C@@H](Cc1ccc(O)cc1)C(N)=O)[C@@H](C)O)C(C)C)[C@@H](C)O, modifications are with respect to human amylin; also called compound 110)",0.326 nM
3,"K([γGlu-γGlu-C20 diacid])CNTATCATQRLAEFLRHSSPNFGAIPSSTNVGPHTY-NH2 (disulfide 2-7 (inferred), modifications are with respect to human amylin)",0.377 nM
4,"K([γGlu-γGlu-C20 diacid])CNTATCATQRLAEFLRHSSPNFGAIPSSTNVGPNTF-NH2 (disulfide 2-7; N-terminus assumed; SMILES CC[C@H](C)[C@H](NC(=O)[C@H](C)NC(=O)CNC(=O)[C@H](Cc1ccccc1)NC(=O)[C@H](CC(N)=O)NC(=O)[C@@H]1CCCN1C(=O)[C@H](CO)NC(=O)[C@H](CO)NC(=O)[C@H](Cc1c[nH]cn1)NC(=O)[C@H](CCCNC(=N)N)NC(=O)[C@H](CC(C)C)NC(=O)[C@H](Cc1ccccc1)NC(=O)[C@H](CCC(=O)O)NC(=O)[C@H](C)NC(=O)[C@H](CC(C)C)NC(=O)[C@H](CCCNC(=N)N)NC(=O)[C@H](CCC(N)=O)NC(=O)[C@@H](NC(=O)[C@H](C)NC(=O)[C@@H]1CSSC[C@H](NC(=O)[C@@H](N)CCCCNC(=O)CC[C@H](NC(=O)CC[C@H](NC(=O)CCCCCCCCCCCCCCCCCCC(=O)O)C(=O)O)C(=O)O)C(=O)N[C@@H](CC(N)=O)C(=O)N[C@@H]([C@@H](C)O)C(=O)N[C@@H](C)C(=O)N[C@@H]([C@@H](C)O)C(=O)N1)[C@@H](C)O)C(=O)N1CCC[C@H]1C(=O)N[C@@H](CO)C(=O)N[C@@H](CO)C(=O)N[C@H](C(=O)N[C@@H](CC(N)=O)C(=O)N[C@H](C(=O)NCC(=O)N1CCC[C@H]1C(=O)N[C@@H](CC(N)=O)C(=O)N[C@H](C(=O)N[C@@H](Cc1ccccc1)C(N)=O)[C@@H](C)O)C(C)C)[C@@H](C)O, modifications are with respect to human amylin)",0.152 nM
5,"K([γGlu-γGlu-C20 diacid])CNTATCATQRLAEFLRHSSPNFGAILSSTPVGPETY-NH2 (disulfide 2-7 (inferred), modifications are with respect to human amylin)",0.069 nM
6,"K([γGlu-γGlu-C20 diacid])CNTATCATQRLAEFLRHSSNNPGAILSSTNVGPETY-NH2 (disulfide 2-7; N-terminus assumed; SMILES CC[C@H](C)[C@H](NC(=O)[C@H](C)NC(=O)CNC(=O)[C@@H]1CCCN1C(=O)[C@H](CC(N)=O)NC(=O)[C@H](CC(N)=O)NC(=O)[C@H](CO)NC(=O)[C@H](CO)NC(=O)[C@H](Cc1c[nH]cn1)NC(=O)[C@H](CCCNC(=N)N)NC(=O)[C@H](CC(C)C)NC(=O)[C@H](Cc1ccccc1)NC(=O)[C@H](CCC(=O)O)NC(=O)[C@H](C)NC(=O)[C@H](CC(C)C)NC(=O)[C@H](CCCNC(=N)N)NC(=O)[C@H](CCC(N)=O)NC(=O)[C@@H](NC(=O)[C@H](C)NC(=O)[C@@H]1CSSC[C@H](NC(=O)[C@@H](N)CCCCNC(=O)CC[C@H](NC(=O)CC[C@H](NC(=O)CCCCCCCCCCCCCCCCCCC(=O)O)C(=O)O)C(=O)O)C(=O)N[C@@H](CC(N)=O)C(=O)N[C@@H]([C@@H](C)O)C(=O)N[C@@H](C)C(=O)N[C@@H]([C@@H](C)O)C(=O)N1)[C@@H](C)O)C(=O)N[C@@H](CC(C)C)C(=O)N[C@@H](CO)C(=O)N[C@@H](CO)C(=O)N[C@H](C(=O)N[C@@H](CC(N)=O)C(=O)N[C@H](C(=O)NCC(=O)N1CCC[C@H]1C(=O)N[C@@H](CCC(=O)O)C(=O)N[C@H](C(=O)N[C@@H](Cc1ccc(O)cc1)C(N)=O)[C@@H](C)O)C(C)C)[C@@H](C)O, modifications are with respect to human amylin)",1.19 nM
7,"K([γGlu-γGlu-C20 diacid])CNTATCATQRLASFLRHSSPNFGAIPSSTNVGPETY-NH2 (disulfide 2-7; N-terminus assumed; SMILES CC[C@H](C)[C@H](NC(=O)[C@H](C)NC(=O)CNC(=O)[C@H](Cc1ccccc1)NC(=O)[C@H](CC(N)=O)NC(=O)[C@@H]1CCCN1C(=O)[C@H](CO)NC(=O)[C@H](CO)NC(=O)[C@H](Cc1c[nH]cn1)NC(=O)[C@H](CCCNC(=N)N)NC(=O)[C@H](CC(C)C)NC(=O)[C@H](Cc1ccccc1)NC(=O)[C@H](CO)NC(=O)[C@H](C)NC(=O)[C@H](CC(C)C)NC(=O)[C@H](CCCNC(=N)N)NC(=O)[C@H](CCC(N)=O)NC(=O)[C@@H](NC(=O)[C@H](C)NC(=O)[C@@H]1CSSC[C@H](NC(=O)[C@@H](N)CCCCNC(=O)CC[C@H](NC(=O)CC[C@H](NC(=O)CCCCCCCCCCCCCCCCCCC(=O)O)C(=O)O)C(=O)O)C(=O)N[C@@H](CC(N)=O)C(=O)N[C@@H]([C@@H](C)O)C(=O)N[C@@H](C)C(=O)N[C@@H]([C@@H](C)O)C(=O)N1)[C@@H](C)O)C(=O)N1CCC[C@H]1C(=O)N[C@@H](CO)C(=O)N[C@@H](CO)C(=O)N[C@H](C(=O)N[C@@H](CC(N)=O)C(=O)N[C@H](C(=O)NCC(=O)N1CCC[C@H]1C(=O)N[C@@H](CCC(=O)O)C(=O)N[C@H](C(=O)N[C@@H](Cc1ccc(O)cc1)C(N)=O)[C@@H](C)O)C(C)C)[C@@H](C)O, modifications are with respect to human amylin; also called compound 120)",0.076 nM
